Four molecules from PMC10397247 can be followed below.

What all share (experiment): two-hybrid library CCNG1;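 also: natural log of median RNA to DNA barcode read ratio; higher means stronger binding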
One assay addresses T1, 4H470-bA.
T1 chain: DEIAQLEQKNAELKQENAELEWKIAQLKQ

A further assay has as its target T2, 4H363-bA.
T2 chain: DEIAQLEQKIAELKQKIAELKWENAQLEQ

In another assay the target is T3, 4H2745-bA.
T3 chain: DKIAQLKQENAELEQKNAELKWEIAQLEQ

The target in another assay is T4, P1mSN.
T4 chain: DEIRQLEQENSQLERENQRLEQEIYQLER

The next assay has as its target T5, 4H3961-bA.
T5 chain: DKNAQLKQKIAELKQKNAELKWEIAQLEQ

The next assay concerns the target T6, 4H3974-bA.
T6 chain: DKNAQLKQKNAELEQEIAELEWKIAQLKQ

In a further assay the target is T7, 4H344-bA.
T7 chain: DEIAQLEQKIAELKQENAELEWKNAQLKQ

The target of the next assay is T8, 4H3907-bA.
T8 chain: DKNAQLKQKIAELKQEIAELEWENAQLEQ

In a further assay the target is T9, 4H2253-bN.
T9 chain: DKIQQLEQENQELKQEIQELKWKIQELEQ

For the next assay, the target named is T10, 4H2931-bN.
T10 chain: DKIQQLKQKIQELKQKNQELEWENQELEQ

The target in another assay is T11, 4H3297-bN.
T11 chain: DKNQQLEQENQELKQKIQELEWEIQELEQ

A further assay deals with T12, 4H3041-bN.
T12 chain: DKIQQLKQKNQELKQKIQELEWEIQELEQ

In another assay the target is T13, 4H56-bN.
T13 chain: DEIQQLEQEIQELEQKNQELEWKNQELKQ

Another assay addresses T14, 4H2859-bN.
T14 chain: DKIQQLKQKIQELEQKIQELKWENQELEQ

A further assay concerns the target T15, 4H2518-bN.
T15 chain: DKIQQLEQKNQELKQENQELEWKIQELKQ

For another assay, the target named is T16, 4H3381-bN.
T16 chain: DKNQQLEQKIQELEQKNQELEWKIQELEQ

In another assay the target is T17, 4H730-bN.
T17 chain: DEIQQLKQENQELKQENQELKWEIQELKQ

The next assay has as its target T18, 4H349-bN.
T18 chain: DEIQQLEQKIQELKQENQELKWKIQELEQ

Another assay concerns the target T19, 4H2760-bN.
T19 chain: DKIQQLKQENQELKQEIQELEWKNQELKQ

The target in a further assay is T20, 4H235-bN.
T20 chain: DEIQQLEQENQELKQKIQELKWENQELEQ

The next assay concerns the target T21, 4H2585-bN.
T21 chain: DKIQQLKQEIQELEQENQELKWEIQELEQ

The target of a further assay is T22, 4H949-bN.
T22 chain: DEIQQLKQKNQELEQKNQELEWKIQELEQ

Another assay concerns the target T23, 4H264-bN.
T23 chain: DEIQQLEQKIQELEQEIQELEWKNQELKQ

The target in a further assay is T24, 4H796-bN.
T24 chain: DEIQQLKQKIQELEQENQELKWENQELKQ

The target of the next assay is T25, 4H2444-bN.
T25 chain: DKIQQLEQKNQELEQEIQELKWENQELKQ

The next assay concerns the target T26, 4H3364-bN.
T26 chain: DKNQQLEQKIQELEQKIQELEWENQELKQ

For a further assay, the target named is T27, 4H932-bN.
T27 chain: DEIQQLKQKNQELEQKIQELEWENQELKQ

Another assay deals with T28, P9A-bP.
T28 chain: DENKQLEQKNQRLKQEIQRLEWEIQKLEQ

The target in the next assay is T29, P8A-bP.
T29 chain: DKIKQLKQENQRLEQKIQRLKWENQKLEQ

A further assay addresses T30, P4A-bP.
T30 chain: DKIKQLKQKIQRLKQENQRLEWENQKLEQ

The target of another assay is T31, P2A-bP.
T31 chain: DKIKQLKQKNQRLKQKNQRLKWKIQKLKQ

The target of a further assay is T32, P6A-bP.
T32 chain: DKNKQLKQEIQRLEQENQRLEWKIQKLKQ

In a further assay the target is T33, P5A-bP.
T33 chain: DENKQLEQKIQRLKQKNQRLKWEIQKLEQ

Another assay has as its target T34, P3A-bP.
T34 chain: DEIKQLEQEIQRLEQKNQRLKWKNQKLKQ

For a further assay, the target named is T35, P7A-bP.
T35 chain: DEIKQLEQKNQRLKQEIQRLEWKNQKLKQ

Another assay has as its target T36, P5A-bS.
T36 chain: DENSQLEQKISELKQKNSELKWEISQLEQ

The next assay concerns the target T37, P3A-bS.
T37 chain: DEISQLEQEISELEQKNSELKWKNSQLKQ

The target in a further assay is T38, P6A-bS.
T38 chain: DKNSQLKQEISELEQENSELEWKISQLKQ

The target in another assay is T39, P2A-bS.
T39 chain: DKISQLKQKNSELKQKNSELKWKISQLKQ

Another assay deals with T40, P7A-bS.
T40 chain: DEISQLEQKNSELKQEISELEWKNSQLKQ

Another assay addresses T41, P8A-bS.
T41 chain: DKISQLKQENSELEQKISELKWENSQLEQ

A further assay has as its target T42, P4A-bS.
T42 chain: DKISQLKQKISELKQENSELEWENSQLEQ

The target of the next assay is T43, P9A-bS.
T43 chain: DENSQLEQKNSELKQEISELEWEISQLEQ

Regarding DKIAQLKQENAELEQKNAELKWEIAQLEQ [4H2745-bA], the interaction score with 4H470-bA is 2.34; with 4H363-bA, -1.18; in the assay with 4H2745-bA, -0.711; with P1mSN, -0.547; with 4H3961-bA it was -1.18; with 4H3974-bA it was 0. The interaction score in the assay with 4H344-bA was 0.257; with 4H3907-bA, -1.14.

With DKIQQLEQENQELKQEIQELKWKIQELEQ [4H2253-bN], the interaction score is 1.16 in the assay with 4H2253-bN; -0.437 in the assay with 4H2931-bN; 0.232 in the assay with 4H3297-bN; -0.989 with 4H3041-bN; -0.248 with 4H56-bN; -0.113 in the assay with 4H2859-bN. Besides, the interaction score was 0.436 with 4H2518-bN; -0.558 with 4H3381-bN; -0.523 with 4H730-bN; -0.821 in the assay with 4H349-bN; 0.286 with 4H2760-bN; -0.204 with 4H235-bN. Moreover, the interaction score with 4H2585-bN was -1.66; in the assay with 4H949-bN it was -0.506; with 4H264-bN it was 0.574; in the assay with 4H796-bN, -1.07; with 4H2444-bN it was 0.131; in the assay with 4H3364-bN it was -1.32. For the same molecule, the interaction score with 4H932-bN was -0.7.

With DKIKQLKQKNQRLKQKNQRLKWKIQKLKQ [P2A-bP], the interaction score with P9A-bP is -0.913; in the assay with P8A-bP, -0.672; in the assay with P4A-bP, -1.81; with P2A-bP, 0.0236; in the assay with P6A-bP, -0.533; in the assay with P5A-bP, -1.71. Besides, the interaction score in the assay with P3A-bP is -1.2; in the assay with P7A-bP, -2.54.

In the case of DKISQLKQKNSELKQKNSELKWKISQLKQ [P2A-bS], the interaction score with P5A-bS was -0.924; with P3A-bS, -0.857; with P6A-bS, -1.71; with P2A-bS it was -1.36; with P7A-bS, -0.792; with P8A-bS it was -0.742. Further, the values for the interaction score in the assay with P4A-bS and with P9A-bS were -0.497 and -0.777, respectively.
